Measurements as given in US20160304566A1.

Key:
human IgG-HRP (human) [1] = experiment: ELISA, coated protein, human IgG-HRP, n=12
human IgG-HRP (human) [2] = experiment: ELISA, SpA coated, human IgG-HRP, PBS in place of F(ab)2, n=5

Substance: SpA5 (RRVV) (from UniProt P38507 37-327)
- OD450 nm, Mean value (human IgG-HRP (human) [1]): 0.062 OD

Substance: SpA5wt (from UniProt P38507 37-327)
- OD450 nm, Mean value (human IgG-HRP (human) [1]): 0.625 OD

Substance: SpA (252) (from UniProt P38507 37-508)
- OD450 nm, Ave (human IgG-HRP (human) [2]): 0.641 OD
- OD450 nm, Mean value (human IgG-HRP (human) [1]): 0.635 OD
